This experiment concerns the target T1, untagged full-length WT MCTS1 (human, UniProt Q9ULC4 1-181).
T1 construct: MCTS1, human, ORF in pETDuet under its own T7 promotor, untagged; also called MCT-1; source: E. coli BL21 (DE3), coexpressed with HIS-tagged DENR variants; in lysate for the pull-down, co-purified (NiNTA, SEC) for crystallization
T1 sequence (looked up): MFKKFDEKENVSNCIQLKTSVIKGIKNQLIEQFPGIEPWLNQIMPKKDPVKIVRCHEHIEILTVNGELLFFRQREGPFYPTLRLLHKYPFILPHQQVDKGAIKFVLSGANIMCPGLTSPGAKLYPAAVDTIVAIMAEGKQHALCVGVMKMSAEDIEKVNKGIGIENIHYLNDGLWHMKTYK
The experiment is described as follows: pull-down; N-terminally HIS-tagged DENR variants or fragments coexpressed with untagged MCTS1 in E. coli; DENR purified over a nickel column, copurifying MCTS1 detected in the eluate. The note with it: partners not purified.

B1: NHis6-tagged DENR aas 24–51 (domain or fragment, human, UniProt O43583 24-51, looked up)
chain: DADYPLRVLYCGVCSLPTEYCEYMPDVA
notes: DENR, human, residues 24-51; also called DENR(aa24–51); DENR peptide; source: E. coli BL21 (DE3), coexpressed with untagged MCTS1; in lysate for the pull-down, purified (NiNTA, SEC) for crystallization; not shown: His6, N-terminal, kept
On to B1, for which the binding result is on record as “binds”.

Values taken from article PMC6013234, “DENR–MCTS1 heterodimerization and tRNA recruitment are required for translation reinitiation” (PLoS Biology, 2018).
